Laboratory results published in the supplement of paper PMC9112550, “Optimization of the antimicrobial peptide Bac7 by deep mutational scanning” (BMC Biology, 2022).

Test system: Escherichia coli TOP10
Assay: shrunken log2 fold change of peptide-encoding DNA abundance (4.5 h post-induction vs induction); higher = less antimicrobial activity (less host growth inhibition)
Details: time post-induction: 4.5 h; library: site-saturation at positions 5, 18, 19, 20
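Note: peptides expressed intracellularly from a pBAD plasmid library in pooled LB shake-flask culture, induced with 0.3% L-arabinose, DNA abundance read by NGS, three biological replicates, DESeq2 with apeglm shrinkage.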

RRIRFRPPRLPRPRPRPPRPPRP
shrunken log2 fold change: 0.905

RRIRNRPPRLPRPRPRPAFNPRP
shrunken log2 fold change: 0.179

RRIRLRPPRLPRPRPRPSREPRP
shrunken log2 fold change: -0.104

RRIRVRPPRLPRPRPRPQYKPRP
shrunken log2 fold change: -0.527

RRIRGRPPRLPRPRPRPMRCPRP
shrunken log2 fold change: 0.581

RRIRTRPPRLPRPRPRPFHNPRP
shrunken log2 fold change: -0.31

RRIRARPPRLPRPRPRPYREPRP
shrunken log2 fold change: -0.0268

RRIRTRPPRLPRPRPRPQVIPRP
shrunken log2 fold change: -0.232

RRIRHRPPRLPRPRPRPKYVPRP
shrunken log2 fold change: -0.0624

RRIRQRPPRLPRPRPRPYAIPRP
shrunken log2 fold change: -0.436

RRIRKRPPRLPRPRPRPSLMPRP
shrunken log2 fold change: 0.256

RRIRPRPPRLPRPRPRPHYLPRP
shrunken log2 fold change: -0.906

RRIRARPPRLPRPRPRPQVWPRP
shrunken log2 fold change: 0.275

RRIRFRPPRLPRPRPRPDAFPRP
shrunken log2 fold change: -0.491

RRIRSRPPRLPRPRPRPTEIPRP
shrunken log2 fold change: -0.0163

RRIRMRPPRLPRPRPRPTYQPRP
shrunken log2 fold change: -0.063

RRIRRRPPRLPRPRPRPVCPPRP
shrunken log2 fold change: 0.32

RRIRMRPPRLPRPRPRPSHFPRP
shrunken log2 fold change: -0.274

RRIRCRPPRLPRPRPRPLRHPRP
shrunken log2 fold change: 0.479

RRIRCRPPRLPRPRPRPVAPPRP
shrunken log2 fold change: 0.436

RRIRQRPPRLPRPRPRPKATPRP
shrunken log2 fold change: 0.18

RRIRHRPPRLPRPRPRPSHCPRP
shrunken log2 fold change: -0.0642

RRIRQRPPRLPRPRPRPGHCPRP
shrunken log2 fold change: 0.217

RRIRLRPPRLPRPRPRPYISPRP
shrunken log2 fold change: -0.374

RRIRERPPRLPRPRPRPFKKPRP
shrunken log2 fold change: -0.0194

RRIRCRPPRLPRPRPRPFCMPRP
shrunken log2 fold change: 0.174

RRIRGRPPRLPRPRPRPAVFPRP
shrunken log2 fold change: 0.878

RRIRSRPPRLPRPRPRPMHMPRP
shrunken log2 fold change: -0.13

RRIRARPPRLPRPRPRPFPEPRP
shrunken log2 fold change: 0.319

RRIRCRPPRLPRPRPRPVYEPRP
shrunken log2 fold change: -0.342

RRIRIRPPRLPRPRPRPLGIPRP
shrunken log2 fold change: 0.132

RRIRTRPPRLPRPRPRPCCNPRP
shrunken log2 fold change: -0.282

RRIRSRPPRLPRPRPRPIEWPRP
shrunken log2 fold change: 0.0274

RRIRARPPRLPRPRPRPTPIPRP
shrunken log2 fold change: 0.747

RRIRERPPRLPRPRPRPSWWPRP
shrunken log2 fold change: 2.26

RRIRRRPPRLPRPRPRPQTDPRP
shrunken log2 fold change: 0.13

RRIRTRPPRLPRPRPRPCRIPRP
shrunken log2 fold change: -0.0965

RRIRWRPPRLPRPRPRPMDIPRP
shrunken log2 fold change: -0.175

RRIRGRPPRLPRPRPRPIRAPRP
shrunken log2 fold change: 0.602

RRIRTRPPRLPRPRPRPTGTPRP
shrunken log2 fold change: -0.0721

RRIRWRPPRLPRPRPRPGFAPRP
shrunken log2 fold change: 0.382

RRIRGRPPRLPRPRPRPFQYPRP
shrunken log2 fold change: 0.105

RRIRRRPPRLPRPRPRPYTPPRP
shrunken log2 fold change: -0.225

RRIRIRPPRLPRPRPRPNVWPRP
shrunken log2 fold change: -0.309

RRIRERPPRLPRPRPRPRHIPRP
shrunken log2 fold change: -0.643

RRIRGRPPRLPRPRPRPTYQPRP
shrunken log2 fold change: 0.169

RRIRIRPPRLPRPRPRPEVKPRP
shrunken log2 fold change: 0.135

RRIRSRPPRLPRPRPRPFCRPRP
shrunken log2 fold change: -0.0968

RRIRARPPRLPRPRPRPNIAPRP
shrunken log2 fold change: 0.464

RRIRSRPPRLPRPRPRPIVCPRP
shrunken log2 fold change: 0.0317

RRIRYRPPRLPRPRPRPAYFPRP
shrunken log2 fold change: -0.782

RRIRCRPPRLPRPRPRPQERPRP
shrunken log2 fold change: -0.028

RRIRGRPPRLPRPRPRPNAVPRP
shrunken log2 fold change: 0.924

RRIRVRPPRLPRPRPRPCRRPRP
shrunken log2 fold change: -0.299

RRIRDRPPRLPRPRPRPNYMPRP
shrunken log2 fold change: -0.216

RRIRLRPPRLPRPRPRPFARPRP
shrunken log2 fold change: -0.00783

RRIRWRPPRLPRPRPRPPPAPRP
shrunken log2 fold change: 1.2

RRIRKRPPRLPRPRPRPPDQPRP
shrunken log2 fold change: 0.802

RRIRPRPPRLPRPRPRPWANPRP
shrunken log2 fold change: -0.0618

RRIRGRPPRLPRPRPRPGMTPRP
shrunken log2 fold change: 0.792

RRIRNRPPRLPRPRPRPRQGPRP
shrunken log2 fold change: -0.0662

RRIRLRPPRLPRPRPRPRIGPRP
shrunken log2 fold change: 0.0176

RRIRVRPPRLPRPRPRPYLRPRP
shrunken log2 fold change: -0.165

RRIRKRPPRLPRPRPRPAMPPRP
shrunken log2 fold change: 0.788

RRIRWRPPRLPRPRPRPLRMPRP
shrunken log2 fold change: 0.531

RRIRQRPPRLPRPRPRPPSAPRP
shrunken log2 fold change: 0.5

RRIRLRPPRLPRPRPRPDEDPRP
shrunken log2 fold change: 0.0258

RRIRGRPPRLPRPRPRPPSMPRP
shrunken log2 fold change: 0.593

RRIRERPPRLPRPRPRPWFSPRP
shrunken log2 fold change: -0.336

RRIRYRPPRLPRPRPRPMDTPRP
shrunken log2 fold change: -0.216

RRIRDRPPRLPRPRPRPEWFPRP
shrunken log2 fold change: 0.257

RRIRCRPPRLPRPRPRPLGYPRP
shrunken log2 fold change: 0.0405

RRIRARPPRLPRPRPRPEERPRP
shrunken log2 fold change: 1.11

RRIRGRPPRLPRPRPRPLRMPRP
shrunken log2 fold change: 0.848

RRIRYRPPRLPRPRPRPKMQPRP
shrunken log2 fold change: -0.344

RRIRWRPPRLPRPRPRPWCEPRP
shrunken log2 fold change: -0.372

RRIRMRPPRLPRPRPRPEEIPRP
shrunken log2 fold change: 0.0117

RRIRWRPPRLPRPRPRPHMYPRP
shrunken log2 fold change: -0.443

RRIRIRPPRLPRPRPRPERDPRP
shrunken log2 fold change: -0.175

RRIRYRPPRLPRPRPRPGDNPRP
shrunken log2 fold change: -0.0446

RRIRNRPPRLPRPRPRPKNQPRP
shrunken log2 fold change: -0.54

RRIRARPPRLPRPRPRPWMLPRP
shrunken log2 fold change: -0.306

RRIRTRPPRLPRPRPRPENRPRP
shrunken log2 fold change: -0.0266

RRIRIRPPRLPRPRPRPVIYPRP
shrunken log2 fold change: -0.695

RRIRFRPPRLPRPRPRPQANPRP
shrunken log2 fold change: -0.0788

RRIRHRPPRLPRPRPRPTTGPRP
shrunken log2 fold change: -0.117

RRIRPRPPRLPRPRPRPANHPRP
shrunken log2 fold change: -0.0982

RRIRTRPPRLPRPRPRPISPPRP
shrunken log2 fold change: -0.357

RRIRMRPPRLPRPRPRPLMPPRP
shrunken log2 fold change: 0.13

RRIRSRPPRLPRPRPRPYLLPRP
shrunken log2 fold change: -0.613

RRIRGRPPRLPRPRPRPNDHPRP
shrunken log2 fold change: 0.143

RRIRSRPPRLPRPRPRPQHSPRP
shrunken log2 fold change: -0.658

RRIRFRPPRLPRPRPRPGGHPRP
shrunken log2 fold change: -0.00918

RRIRLRPPRLPRPRPRPFHLPRP
shrunken log2 fold change: -0.177

RRIRNRPPRLPRPRPRPQLMPRP
shrunken log2 fold change: -0.0332

RRIRIRPPRLPRPRPRPYSNPRP
shrunken log2 fold change: -0.385

RRIRTRPPRLPRPRPRPFYHPRP
shrunken log2 fold change: -0.486

RRIRPRPPRLPRPRPRPFYYPRP
shrunken log2 fold change: -0.838

RRIRERPPRLPRPRPRPIIFPRP
shrunken log2 fold change: -0.352

RRIRPRPPRLPRPRPRPRLPPRP
shrunken log2 fold change: 0.383

RRIRHRPPRLPRPRPRPYHTPRP
shrunken log2 fold change: -0.132

RRIRDRPPRLPRPRPRPFQFPRP
shrunken log2 fold change: -0.324

RRIRYRPPRLPRPRPRPCQLPRP
shrunken log2 fold change: -0.00957

RRIRCRPPRLPRPRPRPGCNPRP
shrunken log2 fold change: -0.425

RRIRCRPPRLPRPRPRPCIHPRP
shrunken log2 fold change: -0.415

RRIRTRPPRLPRPRPRPHMHPRP
shrunken log2 fold change: -0.543

RRIRVRPPRLPRPRPRPPKGPRP
shrunken log2 fold change: 0.18

RRIRYRPPRLPRPRPRPALVPRP
shrunken log2 fold change: 0.112

RRIRERPPRLPRPRPRPGHEPRP
shrunken log2 fold change: 0.159
